The supplement of paper PMC9170038

Test system: K4 kissing-loop RNA reporter
Test: apparent KD of K4 kissing-loop reporter; higher = weaker reporter binding
Details: Eterna round: R107; input ligand: theophylline 20 uM
Method: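 RNA-MaP round R107: designed RNA switches with theophylline, tryptophan, arginine or FMN aptamers are transcribed on-chip within common flanks. They are titrated with a labelled K4 kissing-loop RNA reporter in RNA-MaP buffer (100 mM Tris pH 7.5, 80 mM KCl, 4 mM MgCl2), without ligand or with the indicated ligand. Median apparent KD per design.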
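Further: bound reporter read as fluorescence of individual clusters on recovered sequencing chips by microscopy, with normalized cluster intensities fitted with a binding model.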

First: AGUACAAUGGCGGCCGCCACUCAACAGCAGAUCAAAGAUCUGCUUCACUCAGUGAUGUUGAGUGAGAGGACCGGGCCUUUGUACA [Omei KL Tryp B SS B v4]
Second: UGACAUUGCUCAGAUACCAGACAAGAGGAUCACCCUUGUGCCAACGUACAAAUAAUAAAUGUCCCUUGGCAGCUGAGCAAUGUCU [TheoBX 15]
The “apparent KD of K4 kissing-loop reporter” value of the first is 9.2-fold higher: 853 nM for the first, 92.8 nM for the second.

“GUCCAACCUGGAGGAUAUCUGCUGUCCAGUGAUGUUGGACACUUUAGUAAAGGCCGGGUAGCCCGCAGAGAAGGCCGGAGUUGCC [Arceer]” and “UAGUAGCUCUCGGCCGCCACUCCUCAGUGAUGUUGAGAUAUUAAGAGCCAAUUGGCUCAUAUAAAGAGGACCGGGAGAGCUACAU [AK4.2 SS Tryptophan B]” are within 1.5-fold of each other in “apparent KD of K4 kissing-loop reporter” value: 464 nM for the first, 350 nM for the second.

First: UGAUAGGACAGAAGGAGCGGCAGUGAUGUUGCCAAAAGGGUAAGGUGUCAAAAGACACCCUGCCAGGUAGGUCGCUGUCCUAUCU
Second: GGGAGUAGUGCGGCCGCCACUGAGAAAGAAGAAGAAUAUAGUGAUGUUAUGUAGGAAAGGAAGAACAGGACCGGGCAUUAGAUUU [SSTRyptB.G]
The “apparent KD of K4 kissing-loop reporter” value of the first is 2.4-fold lower: 163 nM for the first, 387 nM for the second.

Going from “UGAUAGGACAGAAGGAGCGAGGAGUGAUGUUCCUCAAAAGGUCUAGCAAAGCUAGACCCUCCUCAGGUAGGUCGCUGUCCUAUCU [ArgBX 1 #Palindromic #SwitchBubble #StaticStem]” to “GCCGUAGAUGGAAGGAGCGUGUCAAAGUGAUGUUUUGAUUAACUCCCUAAGGGAUAGAUGACACAGGUAGGUCGCCAUCUACGGC”, the “apparent KD of K4 kissing-loop reporter” value falls from 232 nM to 102 nM (2.3-fold).

“GGUUUAUAGGAGGAUACCAGUACGGAUAAAGUACGUUAAUAGUAGAGUGAUGUUCUAAAGUACCCUUGGCAGCUUAGAUUAAGUU [ExTheophylB.J]” and “AUUUAGACGAGUGAUGUUCGUGUUAUUACAGAGGAUAUGCGUAAUUGCAGAAGGCUGUAUUUAUAUAUGUUAUGUGGUUUUAAAA [whbob_Ex_FMNA__2th185]” are within 1.5-fold of each other in “apparent KD of K4 kissing-loop reporter” value: 110 nM for the first, 93.8 nM for the second.

In the case of “AAACAUUGGUCUGAUACCAGCUGAUCGGAAACGAUCAUGCUGGAGUGAUGUUCCAGGAAAAGCCCUUGGCAGCAGACCGAUGAAA [MAT - Same State Theophlline B - Mod of Eli - D28]”, the “apparent KD of K4 kissing-loop reporter” value was 184 nM.

Same assay, conditions: Eterna round: R107; input ligand: tryptophan 2.4 mM

Compared with “AGUGCACUGUCAGGAUAUAUACAGUGAUGUUGUGUAUGUCAGCAAGUCAAAGACUUGCUCUUCUGUGUAGAAGGGACUGUGUACA [Omei KL FMN B Exc A v4]”, “AAGUCUCGUUAAUUCGAGGUUACGAUCGAUACCAGUAGCGAGAGGUACCCUUGGCAGCGAAGUGAGUGAUGUUCAUGAAAGAAGA [KL-XTheoA12]” is 1.7-fold lower in “apparent KD of K4 kissing-loop reporter” value: 133 nM for the first, 78 nM for the second.

Going from “AGUGAUGUAGUGUGUUGUUUGUGAAGUGAUCGAGGACCGGUACGGCCGCCACUCGAGUGAUGAGUGAGUGAUGUUUGUUUAGUGG [#18 K4 Tryptophan A Same State]” to “CGCGCCCAGCCGGAUACCAGUGACCCGCUGGGAACCGCGGGCCCAGAGUGAUGUUCGGGACACCCUUGGCAGCCGCCUGGGCGGC [#2 Same State - Theophylline B Attempt #9 (HarryS)]”, the “apparent KD of K4 kissing-loop reporter” value rises from 303 nM to 766 nM (2.5-fold).

Compared with “UAAUCCUAGUGAUAAUUAUCAAGUGGUGGGCGAGGACCGGUACGGCCGCCACUCGAAUAUGCAGUGAUGUUGUAAUCCGGAUAAU [Exclusion - Tryptophan A (Freestyle 7)]”, “GGAGUUACCUGGGAUACCAGCCGGAGGCCCAGAGCUCGGAGUGAUGUUCUGGGAUGUUUCGGCCCUUGGCAGCUCUGGGUCUCCG [#2 Exclusion - Theophylline B Attempt #5 (HarryS)]” is 3.2-fold higher in “apparent KD of K4 kissing-loop reporter” value: 441 nM for the first, 1410 nM for the second.

“AGGUUUUACGGAGGAUAUGCACUGAGGAGGAGAAUAUAGUGAUGUUAUAUAAGAGGAAGGAGAAGAGUAGAAGGCCGUGAGGUUU [SSFMNB.M]” and “AUAAUAUGAGUGAUGUUCAUGUAAGCUGAAGGAGCGGACGAAAGUCCAGGUAGGUCGCAGCGUUCCUUUACCUCAUGAGAAGGAG [KL_SSArg-A1 #analogue]” are within 1.5-fold of each other in “apparent KD of K4 kissing-loop reporter” value: 98.6 nM for the first, 127 nM for the second.

First: UCCUGCAAUCGGCCACGAAAGUGGAUUGAUACCAGAGUCGAAAGACUCCCUUGGCAGCGAGUGAUGUUCGAAGCAGGUAAAUAAA
Second: AGCGAUGUUUUCUCUAAGAGUGAUGUUUUUCGAGGACCGGUACGGCCGCCACUCGAAUAAAGUGUGCGGUAGUGAGCUGUUGACA [#18 K4 Tryptophan A Exclusion]
The “apparent KD of K4 kissing-loop reporter” value of the first is 1.7-fold lower: 432 nM for the first, 718 nM for the second.

Going from “GCCGUAGAUUGAAGGAGCGAGGCUACUUAAAGACCGAGUGAUGUUCGGGAACGUGAAACUCCUCAGGUAGGUCGCAAUCUACGGC” to “UGUACAUGUCAGCGAGUGAUGUUCGACGAUACCAGACUCGAUAGAGUCCCUUGGCAGCGUAACGCAUGCCAAACUGGCAUGUACU [#SwitchBubble 9 #K4Early]”, the “apparent KD of K4 kissing-loop reporter” value rises from 267 nM to 773 nM (2.9-fold).

First: GACAUACCUAUGGAGGGCCGAUCGAUCAUACGAGGACCGGUACGGCCGCCACUCGUGGGCAGUGAUGUUGACCCUGGGAGGUAAG
Second: UGAUAGGACAGAAGGAGCGGAAGCUAGUCAAAGACUAGCACGUUAAUAACAGGAGUGAUGUUCCAGGUAGGUCGCUGUCCUAUCU [ArgBX 24 #SwitchBubble #StaticStem]
The “apparent KD of K4 kissing-loop reporter” value of the first is 4.3-fold higher: 483 nM for the first, 113 nM for the second.

With “ACCAUCAAAGAUGGCCAGGACUCCGCUGAUACCAGAGUGAAAACACUCCCUUGGCAGCAGGUGAGUGAUGUUCACGAGUCCUGGA [Omel KL Theo A SS B v6]” the “apparent KD of K4 kissing-loop reporter” value was 836 nM.
